From patent publication US11732048B2, “Anti-axl antagonistic antibodies” (BERGEN TEKNOLOGIOVERFØRING AS, priority 2016, dated 2023) come the findings set out here.

Assay [1] concerns the target T1, Tyro3 (rhTyro3/Dtk-Fc chimera) (Homo sapiens, UniProt Q06418).
T1 construct: Soluble recombinant antigens corresponding to the extracellular domains of members of the human TAM receptor family; Fc; purchased R&D Systems 859-DK
T1 sequence (Q06418 41-429 limits assumed): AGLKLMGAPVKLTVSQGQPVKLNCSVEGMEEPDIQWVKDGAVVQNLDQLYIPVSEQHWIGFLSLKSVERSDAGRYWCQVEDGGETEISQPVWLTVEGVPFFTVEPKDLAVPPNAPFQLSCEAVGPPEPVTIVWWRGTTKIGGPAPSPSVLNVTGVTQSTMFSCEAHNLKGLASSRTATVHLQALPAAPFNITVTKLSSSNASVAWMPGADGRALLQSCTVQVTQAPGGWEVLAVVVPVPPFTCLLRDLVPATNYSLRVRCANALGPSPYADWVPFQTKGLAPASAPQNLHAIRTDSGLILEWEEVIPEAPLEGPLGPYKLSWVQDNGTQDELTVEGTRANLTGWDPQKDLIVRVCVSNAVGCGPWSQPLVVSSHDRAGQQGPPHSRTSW
The assay can be described thus: Biacore binding analysis on immobilised human Tyro3. The note with it: 10 μg/mL in HBS-EP, 25° C. As to the method: All binding experiments were performed using Biacore 3000 instrument (GE Healthcare) at 25° C. Soluble recombinant antigens corresponding to the extracellular domains of members of the human TAM receptor family, Axl (rhAxl-Fc chimera; R&D Systems, Cat. no. 154-AL), Mer (rhMer-Fc chimera; R&D Systems, Cat. no. 891-MR) and Tyro3 (rhTyro3/Dtk-Fc chimera; R&D Systems, Cat. no. 859-DK) were immobilized on the surface of CM5 sensor chip using amine coupling at the surface density of 393.0, 303.6 and 364.0 resonance units (RU), respectively. The Biacore run was performed in an automatic mode using Binding analysis wizard. Samples containing MAb 10G5 at concentration 10 μg/mL in HBS-EP buffer (GE Healthcare) were injected over the surfaces with immobilized antigens at flow rate of 30 μL/min for 3 min (association) followed by 5 min dissociation.
The binding experiments were performed using Biacore 3000 instrument (GE Healthcare) at 25° C. The soluble recombinant antigens corresponding to human Axl (rhAxl-Fc chimera; R&D Systems, Cat. no. 154-AL), mouse Axl (rmAxl-Fc chimera; R&D Systems, R&D Systems; Cat. no. 854-AX) and human Tyro3 (rhTyro3/Dtk-Fc chimera; R&D Systems, Cat. no. 859-DK) were immobilized on the surface of CM5 sensor chip using amine coupling at the surface density of 1,308.0, 2,115.9 and 1,429.0 RU, respectively. The Biacore runs were performed in an automatic mode using Binding analysis wizard.
The sample containing MAb 10G5 or recombinant mouse (rm) Axl-ligand Gas6 (R&D Systems, Cat. no. 986-GS/CF) at concentration 10 μg/mL in HBS-EP buffer (GE Healthcare) was injected over the surfaces with immobilized antigens at flow rate of 30 μL/min for 3 min (association) followed by 5 min dissociation.
A general note: In SPR one partner is held on a chip, and binding of the other changes the refractive index at the surface.

For assay [2], the target named is T2, human Axl (rhAxl-Fc chimera) (Homo sapiens, UniProt P30530).
T2 construct: Soluble recombinant antigens corresponding to the extracellular domains of members of the human TAM receptor family; Fc; purchased R&D Systems 154-AL
The experiment in a line: Biacore kinetic analysis (surface plasmon resonance) on immobilised rhAxl-Fc. The class given is binding. The note with it: rhAxl immobilized on Biacore sensor chip, 25° C., 1:1 Langmuir binding model. As to the method:
Kinetic analysis of murine MAb 10G5 interacting with rhAxl immobilized on the surface of the Biacore sensor chip. Overlay plots of sensograms for different antibody concentrations (0.3-166.7 nM for murine 10G5) are shown. The precise kinetic analysis was performed using BIA evaluation software and curve fitting according to 1:1 Langmuir binding model. […]
Affinity determination of anti-Axl antibody 10G5 was performed at 25° C. by surface plasmon resonance measurements using Biacore 3000 instrument (GE Healthcare). As a solid antigen-coated surface, a sensor chip CM5 with immobilized rhAxl-Fc chimera (R&D Systems, Cat. no. 154-AL) at density 190 RU was used.
For the kinetics measurements, different concentrations of anti-Axl antibodies (from 0.3 to 666.7 nM) in HBS-EP buffer (Biacore, Cat. no. BR-1001-88) were injected at flow rate of 30 μL/min with 3 min injection time followed by 5 min dissociation (buffer alone). After each cycle, the surface was regenerated by 30 sec injection of a regeneration solution (10 mM HCl, 1 M NaCl) at flow rate 50 μL/min.
The kinetic association (on-rate, kon) and dissociation (off-rate, koff) rates were calculated using BIAevaluation software and 1:1 Langmuir binding model. The equilibrium dissociation constant (KD) was calculated as the koff/kon ratio. The half-life (t1/2) of the formed antibody-antigen complexes was calculated as the ln 2/koff ratio. […]

The next assay addresses T3, Hu-Axl-Fc (Homo sapiens, UniProt P30530).
T3 construct: Fc
The assay can be described thus: Biacore competition binding c10G5 versus YW327.6S2-var (Example 21). Conditions: 666.7 nM each, first and second sample. On the procedure: Injections: • Use Flow Cell(s): 2 with 1 as reference • Flow Rate: 30 (μL/min) • Number of Injections: 2 • First Sample: • Injection Time: 3 (min) • Wait After Injection: 2.5 (min) • Second Sample: • Injection Time: 3 (min) • Wait After Injection: 2.5 (min)
The competitive binding analysis was performed by injecting a first sample (MAbs c10G5 or YW327.6S2-var) at a concentration sufficient to reach plateau within 1-2 min followed by injection of MAb YW327.6S2-var as a second sample (FIG. 21A).
In a second part of the of experiment, the antibody YW327.6S2-var was injected as a first sample followed by injection of either antibody YW327.6S2-var or c10G5 as a second sample (FIG. 21B).

Another assay concerns Mv4-11 tumours. The assay can be described thus: Mv4-11 human AML xenograft in nude mice. The class given is in vivo, mouse. Conditions: 30 mg/kg i.p. twice weekly, after three weeks of treatment, versus vehicle. As to the method: To evaluate the anti-tumour activity of anti-Axl chimeric antibodies in a model of haematological cancer, we used a mouse xenograft model of human acute myeloid leukaemia (AML). The human AML Mv4-11 cells (ATCC #CRL-9591) cells were propagated in suspension in IMDM medium supplemented with 10% FBS, 2 mM L-Glutamine, 100 U/ml penicillin and 100 μg/ml streptomycin. Nude mice were implanted s.c. into the flank with 5×10^6 Mv4-11 cells resuspended in the mixture of serum-free IMDM medium and Matrigel (1:1). When the tumour size reached 200 mm^3 (Day 0 in FIG. 15), the animals were randomized and treated with either vehicle (sterile PBS) or anti-Axl chimeric antibody 10G5 at 30 mg/kg, by i.p. injections twice weekly for 4 weeks.

B1: murine 10G5: mouse monoclonal anti-human Axl antibody from hybridoma WR-10G5-E5; VH SEQ ID NO: 28, VL SEQ ID NO: 29 (antibody, listed as Mus musculus, V domains shown)
VH: QVQLQQSGAELVRPGASVKLSCKASGYSFTDFYINWVRQRPGQGLEWIARIFPGGDNTYYNEKFKGKATLTAEESSSTAYIQLSSLTSEDSAVYFCARRGLYYAMDYWGQGISVTVSS
VL: DVLMTQTPLSLPVSLGDQASISCRSSQSLVHSNGIPYLHWYLQKPGQSPKLLIYRVSNRFSGVPDRFSGSGSGTDFTLKISRVEAEDLGVYFCSQGTHVPPTFGGGTKLEIK
modifications: (1)..(118) Mus musculus 10G5 VH domain; (1)..(112) Mus musculus 10G5 VL domain
Take B1: the “Binding to recombinant human Tyro3” value in assay [1] was “no significant binding”. For the same molecule, in assay [2], the “Off-rate (koff)” value was 0.000439 s⁻¹ and the “On-rate (kon)” value came out at 829000 M⁻¹ s⁻¹. The “Competition between 10G5 and YW327.6S2 for binding to Axl” value in the assay with Hu-Axl-Fc was “does not compete”.

B2: c10G5: chimeric (mouse variable/human constant) IgG1 antibody with the 10G5 VH and VL (antibody, V domains shown)
VH: QVQLQQSGAELVRPGASVKLSCKASGYSFTDFYINWVRQRPGQGLEWIARIFPGGDNTYYNEKFKGKATLTAEESSSTAYIQLSSLTSEDSAVYFCARRGLYYAMDYWGQGISVTVSS
VL: DVLMTQTPLSLPVSLGDQASISCRSSQSLVHSNGIPYLHWYLQKPGQSPKLLIYRVSNRFSGVPDRFSGSGSGTDFTLKISRVEAEDLGVYFCSQGTHVPPTFGGGTKLEIK
Consider B2, for which, in assay [2], the “Off-rate (koff)” value was determined as 0.000169 s⁻¹ and the “On-rate (kon)” value was found to be 1.64e+06 M⁻¹ s⁻¹. Also, the “Inhibition of Mv4-11 tumour growth” value in the assay on Mv4-11 tumours is recorded as “around 75%”.
